From PMC3128532

Target: MBP-tagged TANGO1-Coil2 (amino acids 1440-1650) (human) (UniProt Q5JRA6)
Test: pull-down

Sequence of UniProt Q5JRA6 (Q5JRA6 1440-1650): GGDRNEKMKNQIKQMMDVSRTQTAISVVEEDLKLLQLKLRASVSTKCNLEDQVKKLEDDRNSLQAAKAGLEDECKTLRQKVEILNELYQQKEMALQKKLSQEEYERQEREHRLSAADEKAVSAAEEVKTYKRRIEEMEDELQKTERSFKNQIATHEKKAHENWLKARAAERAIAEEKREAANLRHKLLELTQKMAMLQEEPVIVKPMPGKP

Substance: ColdTF-tagged cTAGE5-Coil2 (amino acids 301-650) (domain or fragment)
- stoichiometry N: 1
